# Laboratory results as given in patent US10766952B2, “Methods for reducing migraine frequency in a subject in need thereof” (Beth Israel Deaconess Medical Center, Inc., priority 2017, dated 2020).
# Positions count from the first letter of the chain named. Names may count otherwise. Ends that are not written are not given here.
# B1: M27: G1 variant: L1 R28N,T30A; HC-FW3 L99T,A100V (antibody, V domains shown)
# VH: EVQLVESGGGLVQPGGSLRLSCAASGFTFSNYWISWVRQAPGKGLEWVAEIRSESDASATHYAEAVKGRFTISRDNAKNSLYLQMNSLRAEDTAVYYCTVYFDYGLAIQNYWGQGTLVTVSS
# VL: EIVLTQSPATLSLSPGERATLSCKASKNVATYVSWYQQKPGQAPRLLIYGASNRYLGIPARFSGSGSGTDFTLTISSLEPEDFAVYYCSQSYNYPYTFGQGTKLEIK
# B2: M28: G1 variant: L1 R28N,T30D; H2 E54R,A57N; HC-FW3 L99T,A100V (antibody, V domains shown)
# VH: B1 VH with E54R, A57N
# VL: B1 VL with A30D
# B3: M29: G1 variant: L1 R28N,T30G; HC-FW3 L99T,A100V (antibody, V domains shown)
# VH: B1 VH
# VL: B1 VL with A30G
# B4: M30: G1 variant: L1 R28N,T30G; H2 E54K,A57E; HC-FW3 L99T,A100V (antibody, V domains shown)
# VH: B1 VH with E54K, A57E
# VL: B1 VL with A30G
# B5: M31: G1 variant: L1 R28N,T30G; H2 E54K,A57G; HC-FW3 L99T,A100V (antibody, V domains shown)
# VH: B1 VH with E54K, A57G
# VL: B1 VL with A30G
# B6: M32: G1 variant: L1 R28N,T30G; H2 E54K,A57H; HC-FW3 L99T,A100V (antibody, V domains shown)
# VH: B1 VH with E54K, A57H
# VL: B1 VL with A30G
# B7: M33: G1 variant: L1 R28N,T30G; H2 E54K,A57N,S58G; HC-FW3 L99T,A100V (antibody, V domains shown)
# VH: B1 VH with E54K, A57N, S58G
# VL: B1 VL with A30G
# B8: M34: G1 variant: L1 R28N,T30G; H2 E54K,A57N,S58T; HC-FW3 L99T,A100V (antibody, V domains shown)
# VH: B1 VH with E54K, A57N, S58T
# VL: B1 VL with A30G
# B9: M35: G1 variant: L1 R28N,T30G; H2 E54K,A57S; HC-FW3 L99T,A100V (antibody, V domains shown)
# VH: B1 VH with E54K, A57S
# VL: B1 VL with A30G
# B10: M36: G1 variant: L1 R28N,T30R; HC-FW3 L99T,A100V (antibody, V domains shown)
# VH: B1 VH
# VL: B1 VL with A30R
# B11: M37: G1 variant: L1 R28N,T30S; H2 A57G; HC-FW3 L99T,A100V (antibody, V domains shown)
# VH: B1 VH with A57G
# VL: B1 VL with A30S
# B12: M38: G1 variant: L1 R28N,T30W; HC-FW3 L99T,A100V (antibody, V domains shown)
# VH: B1 VH
# VL: B1 VL with A30W
# B13: M39: G1 variant: L1 R28N; L2 G50A,L56T; H2 A57N,S58Y; HC-FW3 L99T,A100V (antibody, V domains shown)
# VH: B1 VH with A57N, S58Y
# VL: B1 VL with A30T, G50A, L56T
# B14: M40: G1 variant: L1 R28N; L2 G50A,L56T; H2 E54K,A57L; HC-FW3 L99T,A100V (antibody, V domains shown)
# VH: B1 VH with E54K, A57L
# VL: B1 VL with A30T, G50A, L56T
# B15: M41: G1 variant: L1 R28N; L2 G50A,L56T; H2 E54K,A57N,E64D; HC-FW3 L99T,A100V (antibody, V domains shown)
# VH: B1 VH with E54K, A57N, E64D
# VL: B1 VL with A30T, G50A, L56T
# B16: M42: G1 variant: L1 R28N; L2 G50A,L56T; H2 E54K,A57N,H61F; HC-FW3 L99T,A100V (antibody, V domains shown)
# VH: B1 VH with E54K, A57N, H61F
# VL: B1 VL with A30T, G50A, L56T
# B17: M43: G1 variant: L1 R28N; L2 G50A,L56T; H2 E54K,A57N,S58C; HC-FW3 L99T,A100V (antibody, V domains shown)
# VH: B1 VH with E54K, A57N, S58C
# VL: B1 VL with A30T, G50A, L56T
# B18: M44: G1 variant: L1 R28N; L2 G50A,L56T; H2 E54K,A57N,S58E; HC-FW3 L99T,A100V (antibody, V domains shown)
# VH: B1 VH with E54K, A57N, S58E
# VL: B1 VL with A30T, G50A, L56T
# B19: M45: G1 variant: L1 R28N; L2 G50A,L56T; H2 E54K,A57N,S58E,E64D; HC-FW3 L99T,A100V (antibody, V domains shown)
# VH: B1 VH with E54K, A57N, S58E, E64D
# VL: B1 VL with A30T, G50A, L56T
# Target: T1, human α-CGRP (Homo sapiens, UniProt P06881)
# T1 construct: 1-37 (WT); purchased; host or cells: synthetic peptide
# T1 sequence (P06881 83-119 limits assumed): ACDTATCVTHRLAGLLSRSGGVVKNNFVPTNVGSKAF
# Assay: Biacore affinity of antibody G1 Fab and variants to human α-CGRP
# Format: binding
# Conditions: 37° C., Fab, screening mode unless underlined
# Method in brief: (§1)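 Fab fragments flowed over N-biotinylated CGRP captured on SA chip in HBS-EP pH 7.4; titration series fit globally to 1:1 Langmuir model, KD = koff/kon. For very slow off-rates, kon from 550 nM–1 nM series with 30 s dissociation, koff from 2-hour dissociation.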
row,Molecule,α-human koff [s⁻¹]
1,B1,0.000357
2,B2,9.96e-05
3,B3,0.00038
4,B4,0.00059
5,B5,0.000347
6,B6,0.000271
7,B7,0.00075
8,B8,0.000646
9,B9,0.000339
10,B10,0.000239
11,B11,0.000226
12,B12,0.000218
13,B13,0.000425
14,B14,0.00128
15,B15,0.00021
16,B16,0.000417
17,B17,0.000263
18,B18,0.00021
19,B19,0.000211

# Target: T2, rat α-CGRP (Rattus norvegicus, UniProt P01256)
# T2 construct: rat α (1-37); host or cells: synthetic peptide
# T2 sequence (P01256 83-119 limits assumed): T1 sequence (P06881 83-119 limits assumed) with A1S, D3N, N25D, K35E
# Assay: Biacore affinity of antibody G1 Fab and variants to rat α-CGRP
# Format: binding
# Conditions: 37° C., Fab, screening mode unless underlined
# Method in brief: as §1
row,Molecule,α-rat koff [s⁻¹]
1,B1,0.00341
2,B2,0.00125
3,B3,0.00359
4,B4,0.00638
5,B5,0.00361
6,B6,0.00296
7,B7,0.00922
8,B8,0.00217
9,B9,0.00399
10,B10,0.00479
11,B11,0.00145
12,B12,0.00511
13,B13,0.00995
14,B14,0.36
15,B15,0.00453
16,B16,0.00752
17,B17,0.00453
18,B18,0.00613
19,B19,0.00558

# Target: T3, binding of G1 Fab to human α-CGRP on the chip (Homo sapiens)
# T3 construct: made in house; host or cells: E. coli (Fab); chip peptide purchased
# T3 sequence (P01859 with tags, fused parts or gaps, other chains not shown): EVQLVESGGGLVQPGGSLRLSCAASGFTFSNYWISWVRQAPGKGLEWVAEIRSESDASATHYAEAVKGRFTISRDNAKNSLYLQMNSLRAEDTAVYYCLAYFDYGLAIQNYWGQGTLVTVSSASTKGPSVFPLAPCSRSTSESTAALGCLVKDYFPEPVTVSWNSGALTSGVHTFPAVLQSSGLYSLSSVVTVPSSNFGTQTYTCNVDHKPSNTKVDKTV
# Assay: Epitope mapping of antibody G1 by peptide competition using Biacore
# Conditions: 10 μM peptide in 50 nM G1 Fab; FIG. 6
# Text: N-biotinylated human α-CGRP was captured on SA sensor chip. […] Y axis represents percentage of binding blocked by the presence of the competing peptide compared with the binding in the absence of the competing peptide.
# Human α-CGRP was purchased as an N-biotinylated version to enable its high-affinity capture via SA sensor chips. […] All these peptides are amidated at the C-terminus.
row,Molecule,percentage of binding of G1 Fab to human α-CGRP blocked by competing peptide
1,"1-13: human α-CGRP fragment, SEQ ID NO: 40, ACDTATCVTHRLA (ACDTATCVTHRLA-OH; cysteine pairing not given here)",did not compete
2,"1-19: human α-CGRP fragment, SEQ ID NO: 39, ACDTATCVTHRLAGLLSRS (ACDTATCVTHRLAGLLSRS-OH; cysteine pairing not given here)",did not compete
3,"1-36: human α-CGRP fragment, SEQ ID NO: 38, ACDTATCVTHRLAGLLSRSGGVVKNNFVPTNVGSKA (ACDTATCVTHRLAGLLSRSGGVVKNNFVPTNVGSKA-OH; cysteine pairing not given here)",about 40%
4,"19-36: human α-CGRP fragment, SEQ ID NO: 37, SGGVVKNNFVPTNVGSKA (SGGVVKNNFVPTNVGSKA-OH)",did not compete
5,"adrenomedullin: SEQ ID NO: 47, YRQSMNNFQGLRSFGCRFGTCTVQKLAHQIYQFTDKDKDNVAPRSKISPQGY",did not compete
6,"calcitonin: SEQ ID NO: 45, CGNLSTCMLGTYTQDFNKFHTFPQTAIGVGAP",did not compete
7,"human amylin: SEQ ID NO: 46, KCNTATCATQRLANFLVHSSNNFGAILSSTNVGSNTY",did not compete
